The target in assay [1] is PD-1 on tumor infiltrating lymphocytes (human) (UniProt Q15116). The experiment in a line: flow cytometry of tumor digest OV8074 stained with anti-PD-1 clone EH12.2H7; percent of CD3+ cells stained PD-1+. (In general: A flow cytometer gives signals particle by particle.)
Assay [2] shares this target. The experiment in a line: flow cytometry of tumor digest H3046 stained with anti-PD-1 clone EH12.2H7; percent of CD3+ cells stained PD-1+.
For assay [3] the target is unchanged. The experiment in a line: flow cytometry of tumor digest M1156 stained with anti-PD-1 clone EH12.2H7; percent of CD3+ cells stained PD-1+.

Chain of UniProt Q15116 (Q15116 25-288): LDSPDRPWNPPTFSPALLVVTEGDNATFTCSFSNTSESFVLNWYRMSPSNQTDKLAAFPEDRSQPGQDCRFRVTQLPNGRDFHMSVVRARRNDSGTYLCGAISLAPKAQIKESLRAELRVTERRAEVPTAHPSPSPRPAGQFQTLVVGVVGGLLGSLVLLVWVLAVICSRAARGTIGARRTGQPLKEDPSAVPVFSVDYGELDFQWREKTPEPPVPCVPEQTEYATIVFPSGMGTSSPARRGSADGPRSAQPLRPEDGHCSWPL

B1: anti-PD-1 antibody clone EH12.2H7 (antibody, from another filing, V domains shown)
VH: QVQLQQSGAELAKPGASVQMSCKASGYSFTSSWIHWVKQRPGQGLEWIGYIYPSTGFTEYNQKFKDKATLTADKSSSTAYMQLSSLTSEDSAVYYCARWRDSSGYHAMDYWGQGTSVTVSS
VL: DIVLTQSPASLTVSLGQRATISCRASQSVSTSGYSYMHWYQQKPGQPPKLLIKFGSNLESGIPARFSGSGSGTDFTLNIHPVEEEDTATYYCQHSWEIPYTFGGGTKLEIK
As to B1, the Pre-sort % PD-1+ (of CD3+) was determined as 70% in assay [1], 13% in assay [2] and 93% in assay [3].

The record behind these values is patent US20240269180A1.
